Laboratory results taken from patent publication US20260193335A1 (ZOETIS SERVICES, published 2026).

target: Feline FcRn (complex of FcRn-α subunit and β-microglobulin, C-terminal His tag) (feline); assay: SPR Biacore, biotin-FcRn on SA chip, pH 6
Sequence (chain, as listed by the source, chain 1 of 2): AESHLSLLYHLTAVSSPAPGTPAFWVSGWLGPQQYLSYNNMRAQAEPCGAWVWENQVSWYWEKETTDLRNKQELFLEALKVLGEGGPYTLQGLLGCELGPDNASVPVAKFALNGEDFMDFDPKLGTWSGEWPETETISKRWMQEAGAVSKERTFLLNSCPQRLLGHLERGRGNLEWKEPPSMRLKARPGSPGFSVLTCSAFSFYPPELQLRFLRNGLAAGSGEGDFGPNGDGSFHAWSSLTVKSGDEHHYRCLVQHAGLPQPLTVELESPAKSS
Sequence (Q5MGS7 21-118, chain 2 of 2): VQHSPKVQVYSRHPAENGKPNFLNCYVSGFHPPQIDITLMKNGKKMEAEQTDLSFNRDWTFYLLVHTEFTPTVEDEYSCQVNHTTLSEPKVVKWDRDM

| Kd [nM] | Binder |
| --- | --- |
| 8.65 | mAb5 (felinized anti-IL31 antibody) S428L, feline IgG1a (antibody, part only; not given: variable domains of mAb5, not shown: another chain or arm of the molecule; small tags and cut ends) constant: ASTTAPSVFPLAPSCGTTSGATVALACLVLGYFPEPVTVSWNSGALTSGVHTFPAVLQASGLYSLSSMVTVPSSRWLSDTFTCNVAHPPSNTKVDKTVRKTDHPPGPKPCDCPKCPPPEMLGGPSIFIFPPKPKDTLSISRTPEVTCLVVDLGPDDSDVQITWFVDNTQVYTAKTSPREEQFNSTYRVVSVLPILHQDWLKGKEFKCKVNSKSLPSPIERTISKAKGQPHEPQVYVLPPAQEELSRNKVSVTCLIKSFHPPDIAVEWEITGQPEPENNYRTTPPQLDSDGTYFVYSKLSVDRSHWQRGNTYTCSVLHEALHSHHTQKSLTQSPGK |

target: T1, Feline FcRn (complex of FcRn-α subunit and β-microglobulin, C-terminal His tag) (feline, UniProt A0ABI7ZNY9 23-296; Q5MGS7 21-118); assay: SPR Biacore, biotin-FcRn on SA chip, pH 6
T1 construct: treated here as one molecule
Protocol: Feline FcRn was isolated, prepared and mutant Fc IgGs were assayed against feline FcRn according to Strietzel et. al., discussed above. Standard PCR was used to amplify feline FcRn-α subunit and β-microglobulin. FcRn-α subunit and β-microglobulin were co-transfected into HEK 293 cells and the FcRn complex was purified by IMAC affinity purification via the c-terminal His tag. FcRn complex was biotin labeled through BirA enzymatic biotinylatoin reaction. KD's were measured by Biacore T200 (GE Healthcare, Pittsburgh, PA, USA) or Biacore 8K (Cytiva, Marlborough, MA, USA) using a SA sensor chip.
FcRn was captured on the surface of the sensor using a modified SA capture method. 10 mM MES; 150 mM NaCl; 0.005% Tween20; 0.5 mg/mL BSA; pH6 was used as capture, method running buffer and titrations. 1×HBS-P, 0.5 mg/mL BSA; pH7.4 was also used for method running buffer and titrations. Fc mutant IgGs were flowed over receptor surfaces and affinity was determined using T200 evaluation software or Biacore Insight Evaluation software. Blank runs containing buffer only were subtracted out from all runs. Flow cells were regenerated using 50 mM Tris pH8 or pH9. Runs were performed at 15° C.

| Binder | Kd [nM] |
| --- | --- |
| mAb4 (felinized anti-IL31 antibody ZTS-5864) S428V, feline IgG1a (antibody, also called mAb4 ID No. 18) heavy: DVQLVESGGDLVKPGGSLRLTCVASGFTFSDYAMSWVRQAPGKGLQWVAGIDSVGSGTSYADSVKGRFTISRDNAKNTLYLQMNSLKTEDTATYYCASGFPGSFEHWGQGTLVTVSSASTTAPSVFPLAPSCGTTSGATVALACLVLGYFPEPVTVSWNSGALTSGVHTFPAVLQASGLYSLSSMVTVPSSRWLSDTFTCNVAHPPSNTKVDKTVRKTDHPPGPKPCDCPKCPPPEMLGGPSIFIFPPKPKDTLSISRTPEVTCLVVDLGPDDSDVQITWFVDNTQVYTAKTSPREEQFNSTYRVVSVLPILHQDWLKGKEFKCKVNSKSLPSPIERTISKAKGQPHEPQVYVLPPAQEELSRNKVSVTCLIKSFHPPDIAVEWEITGQPEPENNYRTTPPQLDSDGTYFVYSKLSVDRSHWQRGNTYTCSVVHEALHSHHTQKSLTQSPGK VL: QSVLTQPSSVSGTLGQRITISCTGSSSNIGSGYVGWYQQVPGMGPKTVIYYNSDRPSGVPDRFSGSKSGSSGTLTITGLQAEDEADYYCSVYDRTFNAVFGGGT | 63.9 |
| mAb4 (felinized anti-IL31 antibody ZTS-5864) S428Y, feline IgG1a (antibody, also called mAb4 ID No. 20) heavy: DVQLVESGGDLVKPGGSLRLTCVASGFTFSDYAMSWVRQAPGKGLQWVAGIDSVGSGTSYADSVKGRFTISRDNAKNTLYLQMNSLKTEDTATYYCASGFPGSFEHWGQGTLVTVSSASTTAPSVFPLAPSCGTTSGATVALACLVLGYFPEPVTVSWNSGALTSGVHTFPAVLQASGLYSLSSMVTVPSSRWLSDTFTCNVAHPPSNTKVDKTVRKTDHPPGPKPCDCPKCPPPEMLGGPSIFIFPPKPKDTLSISRTPEVTCLVVDLGPDDSDVQITWFVDNTQVYTAKTSPREEQFNSTYRVVSVLPILHQDWLKGKEFKCKVNSKSLPSPIERTISKAKGQPHEPQVYVLPPAQEELSRNKVSVTCLIKSFHPPDIAVEWEITGQPEPENNYRTTPPQLDSDGTYFVYSKLSVDRSHWQRGNTYTCSVYHEALHSHHTQKSLTQSPGK VL: QSVLTQPSSVSGTLGQRITISCTGSSSNIGSGYVGWYQQVPGMGPKTVIYYNSDRPSGVPDRFSGSKSGSSGTLTITGLQAEDEADYYCSVYDRTFNAVFGGGT | 63.4 |
| mAb4 (felinized anti-IL31 antibody ZTS-5864) S428Y and S434L, feline IgG1a (antibody, also called mAb4 ID No. 29) heavy: DVQLVESGGDLVKPGGSLRLTCVASGFTFSDYAMSWVRQAPGKGLQWVAGIDSVGSGTSYADSVKGRFTISRDNAKNTLYLQMNSLKTEDTATYYCASGFPGSFEHWGQGTLVTVSSASTTAPSVFPLAPSCGTTSGATVALACLVLGYFPEPVTVSWNSGALTSGVHTFPAVLQASGLYSLSSMVTVPSSRWLSDTFTCNVAHPPSNTKVDKTVRKTDHPPGPKPCDCPKCPPPEMLGGPSIFIFPPKPKDTLSISRTPEVTCLVVDLGPDDSDVQITWFVDNTQVYTAKTSPREEQFNSTYRVVSVLPILHQDWLKGKEFKCKVNSKSLPSPIERTISKAKGQPHEPQVYVLPPAQEELSRNKVSVTCLIKSFHPPDIAVEWEITGQPEPENNYRTTPPQLDSDGTYFVYSKLSVDRSHWQRGNTYTCSVYHEALHLHHTQKSLTQSPGK VL: QSVLTQPSSVSGTLGQRITISCTGSSSNIGSGYVGWYQQVPGMGPKTVIYYNSDRPSGVPDRFSGSKSGSSGTLTITGLQAEDEADYYCSVYDRTFNAVFGGGT | 44 |

Next, values leading:

| Kd [nM] | Binder |
| --- | --- |
| 42 | mAb4 (felinized anti-IL31 antibody ZTS-5864) S428M and S434P, feline IgG1a, ID No. 35 (antibody, Same printed mutations as ID No. 50; also called mAb4 ID No. 35) heavy: DVQLVESGGDLVKPGGSLRLTCVASGFTFSDYAMSWVRQAPGKGLQWVAGIDSVGSGTSYADSVKGRFTISRDNAKNTLYLQMNSLKTEDTATYYCASGFPGSFEHWGQGTLVTVSSASTTAPSVFPLAPSCGTTSGATVALACLVLGYFPEPVTVSWNSGALTSGVHTFPAVLQASGLYSLSSMVTVPSSRWLSDTFTCNVAHPPSNTKVDKTVRKTDHPPGPKPCDCPKCPPPEMLGGPSIFIFPPKPKDTLSISRTPEVTCLVVDLGPDDSDVQITWFVDNTQVYTAKTSPREEQFNSTYRVVSVLPILHQDWLKGKEFKCKVNSKSLPSPIERTISKAKGQPHEPQVYVLPPAQEELSRNKVSVTCLIKSFHPPDIAVEWEITGQPEPENNYRTTPPQLDSDGTYFVYSKLSVDRSHWQRGNTYTCSVMHEALHPHHTQKSLTQSPGK VL: QSVLTQPSSVSGTLGQRITISCTGSSSNIGSGYVGWYQQVPGMGPKTVIYYNSDRPSGVPDRFSGSKSGSSGTLTITGLQAEDEADYYCSVYDRTFNAVFGGGT |
| 40.6 | mAb4 (felinized anti-IL31 antibody ZTS-5864) S428Y and S434P, feline IgG1a (antibody, also called mAb4 ID No. 30) heavy: DVQLVESGGDLVKPGGSLRLTCVASGFTFSDYAMSWVRQAPGKGLQWVAGIDSVGSGTSYADSVKGRFTISRDNAKNTLYLQMNSLKTEDTATYYCASGFPGSFEHWGQGTLVTVSSASTTAPSVFPLAPSCGTTSGATVALACLVLGYFPEPVTVSWNSGALTSGVHTFPAVLQASGLYSLSSMVTVPSSRWLSDTFTCNVAHPPSNTKVDKTVRKTDHPPGPKPCDCPKCPPPEMLGGPSIFIFPPKPKDTLSISRTPEVTCLVVDLGPDDSDVQITWFVDNTQVYTAKTSPREEQFNSTYRVVSVLPILHQDWLKGKEFKCKVNSKSLPSPIERTISKAKGQPHEPQVYVLPPAQEELSRNKVSVTCLIKSFHPPDIAVEWEITGQPEPENNYRTTPPQLDSDGTYFVYSKLSVDRSHWQRGNTYTCSVYHEALHPHHTQKSLTQSPGK VL: QSVLTQPSSVSGTLGQRITISCTGSSSNIGSGYVGWYQQVPGMGPKTVIYYNSDRPSGVPDRFSGSKSGSSGTLTITGLQAEDEADYYCSVYDRTFNAVFGGGT |
| 28.3 | mAb4 (felinized anti-IL31 antibody ZTS-5864) S428M and S434L, feline IgG1a, ID No. 34 (antibody, Same printed mutations as ID No. 49; also called mAb4 ID No. 34) heavy: DVQLVESGGDLVKPGGSLRLTCVASGFTFSDYAMSWVRQAPGKGLQWVAGIDSVGSGTSYADSVKGRFTISRDNAKNTLYLQMNSLKTEDTATYYCASGFPGSFEHWGQGTLVTVSSASTTAPSVFPLAPSCGTTSGATVALACLVLGYFPEPVTVSWNSGALTSGVHTFPAVLQASGLYSLSSMVTVPSSRWLSDTFTCNVAHPPSNTKVDKTVRKTDHPPGPKPCDCPKCPPPEMLGGPSIFIFPPKPKDTLSISRTPEVTCLVVDLGPDDSDVQITWFVDNTQVYTAKTSPREEQFNSTYRVVSVLPILHQDWLKGKEFKCKVNSKSLPSPIERTISKAKGQPHEPQVYVLPPAQEELSRNKVSVTCLIKSFHPPDIAVEWEITGQPEPENNYRTTPPQLDSDGTYFVYSKLSVDRSHWQRGNTYTCSVMHEALHLHHTQKSLTQSPGK VL: QSVLTQPSSVSGTLGQRITISCTGSSSNIGSGYVGWYQQVPGMGPKTVIYYNSDRPSGVPDRFSGSKSGSSGTLTITGLQAEDEADYYCSVYDRTFNAVFGGGT |
| 18.9 | mAb4 (felinized anti-IL31 antibody ZTS-5864) S428Y and S434F, feline IgG1a (antibody, also called mAb4 ID No. 28) heavy: DVQLVESGGDLVKPGGSLRLTCVASGFTFSDYAMSWVRQAPGKGLQWVAGIDSVGSGTSYADSVKGRFTISRDNAKNTLYLQMNSLKTEDTATYYCASGFPGSFEHWGQGTLVTVSSASTTAPSVFPLAPSCGTTSGATVALACLVLGYFPEPVTVSWNSGALTSGVHTFPAVLQASGLYSLSSMVTVPSSRWLSDTFTCNVAHPPSNTKVDKTVRKTDHPPGPKPCDCPKCPPPEMLGGPSIFIFPPKPKDTLSISRTPEVTCLVVDLGPDDSDVQITWFVDNTQVYTAKTSPREEQFNSTYRVVSVLPILHQDWLKGKEFKCKVNSKSLPSPIERTISKAKGQPHEPQVYVLPPAQEELSRNKVSVTCLIKSFHPPDIAVEWEITGQPEPENNYRTTPPQLDSDGTYFVYSKLSVDRSHWQRGNTYTCSVYHEALHFHHTQKSLTQSPGK VL: QSVLTQPSSVSGTLGQRITISCTGSSSNIGSGYVGWYQQVPGMGPKTVIYYNSDRPSGVPDRFSGSKSGSSGTLTITGLQAEDEADYYCSVYDRTFNAVFGGGT |
| 18.8 | mAb4 (felinized anti-IL31 antibody ZTS-5864) S428Y and S434H, feline IgG1a (antibody, also called mAb4 ID No. 27) heavy: DVQLVESGGDLVKPGGSLRLTCVASGFTFSDYAMSWVRQAPGKGLQWVAGIDSVGSGTSYADSVKGRFTISRDNAKNTLYLQMNSLKTEDTATYYCASGFPGSFEHWGQGTLVTVSSASTTAPSVFPLAPSCGTTSGATVALACLVLGYFPEPVTVSWNSGALTSGVHTFPAVLQASGLYSLSSMVTVPSSRWLSDTFTCNVAHPPSNTKVDKTVRKTDHPPGPKPCDCPKCPPPEMLGGPSIFIFPPKPKDTLSISRTPEVTCLVVDLGPDDSDVQITWFVDNTQVYTAKTSPREEQFNSTYRVVSVLPILHQDWLKGKEFKCKVNSKSLPSPIERTISKAKGQPHEPQVYVLPPAQEELSRNKVSVTCLIKSFHPPDIAVEWEITGQPEPENNYRTTPPQLDSDGTYFVYSKLSVDRSHWQRGNTYTCSVYHEALHHHHTQKSLTQSPGK VL: QSVLTQPSSVSGTLGQRITISCTGSSSNIGSGYVGWYQQVPGMGPKTVIYYNSDRPSGVPDRFSGSKSGSSGTLTITGLQAEDEADYYCSVYDRTFNAVFGGGT |
| 17.2 | mAb4 (felinized anti-IL31 antibody ZTS-5864) S428M and S434H, feline IgG1a (antibody, also called mAb4 ID No. 32) heavy: DVQLVESGGDLVKPGGSLRLTCVASGFTFSDYAMSWVRQAPGKGLQWVAGIDSVGSGTSYADSVKGRFTISRDNAKNTLYLQMNSLKTEDTATYYCASGFPGSFEHWGQGTLVTVSSASTTAPSVFPLAPSCGTTSGATVALACLVLGYFPEPVTVSWNSGALTSGVHTFPAVLQASGLYSLSSMVTVPSSRWLSDTFTCNVAHPPSNTKVDKTVRKTDHPPGPKPCDCPKCPPPEMLGGPSIFIFPPKPKDTLSISRTPEVTCLVVDLGPDDSDVQITWFVDNTQVYTAKTSPREEQFNSTYRVVSVLPILHQDWLKGKEFKCKVNSKSLPSPIERTISKAKGQPHEPQVYVLPPAQEELSRNKVSVTCLIKSFHPPDIAVEWEITGQPEPENNYRTTPPQLDSDGTYFVYSKLSVDRSHWQRGNTYTCSVMHEALHHHHTQKSLTQSPGK VL: QSVLTQPSSVSGTLGQRITISCTGSSSNIGSGYVGWYQQVPGMGPKTVIYYNSDRPSGVPDRFSGSKSGSSGTLTITGLQAEDEADYYCSVYDRTFNAVFGGGT |
